Source: US7230094B2, “Neutral sphingomyelinase antisense ribozyme and uses thereof” (priority 2001, dated 2007)

Legend:
N-SMase [1] = experiment: Neutral sphingomyelinase activity in cell extracts, [14C]sphingomyelin substrate; assay type: cell-based, human; details: for Neutral SMase activity: MG-63 WT 2.7, L-3 LacZ/sham 2.1
Description: Confluent culture of cells were harvested, washed, and pellets lysed in buffer containing 0.1% Triton™ X-100, 25 mM Tris (pH 7.4) buffer, 5 mM EDTA, 1 mM phenylmethylsulfonylfluoride and 2 μg each of chymostatin, leupeptin, antipain, and pepstatin A. The activity levels of acid and neutral sphingomyelinase were measured in cell extracts (100 μg protein) in duplicate as described previously employing […] as the substrate.
Activities of A-SMase and N-SMase were also measured according to methods described in Chatterjee, S. and Ghosh, N. (1996) Glycobiology 6:303–311, incorporated herein by reference, with minor modifications. In brief, 5×10^6 MG63 cells were scraped from the culture plates, washed with PBS, and disrupted by repeated passage through a 25-gauge needle. Nuclei and cell debris were pelleted at 800×g for 5 min. Supernatant fluid was collected, and the protein concentration was measured using the Bio-Rad (Hercules, Calif.) protein detection kit. To measure SMase activity, 50 μg of protein was incubated for 90 min (the reaction was linear for up to 120 min) at 37° C. in buffer (200 μl final volume) containing 250 mM sodium acetate and 1 mM EDTA, pH 5.0, for A-SMase or 250 mM Tris-Cl, pH 7.4, with or without 6 mM MgCl2 for N-SMase, and 0.75 μl of [methyl-^14C]sphingomyelin (SM) (0.2 mCi/ml; 56.6 mCi/mmol). Radioactive phosphocholine produced from [^14C]SM was extracted with 800 μl of chloroform-methanol (2:1, vol/vol) and 100 μl of H2O. [^14C]phosphocholine in the aqueous phase was measured by scintillation counting.

N-SMase [2] = experiment: Immunocytochemical analysis of cells, N-SMase antibody; assay type: cell-based, human; details: clone CC compared to untransfected (WT) and sham-transfected (LacZ) lines
Description: Wild-type (WT) MG-63 cells and MG-63 cells transfected with LacZ constructs (L-3) and ribozyme expression constructs for the inhibition of N-SMase expression (CC) were analyzed by immunocytochemistry. The antibodies either recognized epitopes in fibronectin (control) or N-SMase. The analysis was performed in duplicates for the MG-63 cell line and the two mutant colonies.

B1: N-SMase ribozyme: U1 snRNA-derived hammerhead antisense ribozyme targeting N-SMase mRNA, expressed from vector pNSMRz; stably transfected MG63 clones CC and C-B (nucleic acid, listed as Homo sapiens)
chain: AUACUUACCUGGCAGGGGAGAUACCAUGAUCACGAAGGUGGUUUUCCCAGGGCGAGGCUUAUCCAUUGGCCUCCGGAUGUGCUGACCCCUGCGAUUUCCCCAAAUGUGGGAAACUCGACUGCAGAAUAUGUCAUCAUAUUGCCUGAUGAGUCCGUGAGGACGAAACCUCUUCACAUGAAAAAGUGGGGCUGCGUUCGCGCUUCCCCG
- Neutral SMase activity (N-SMase [1]; MG-63 clone C-B (ribozyme-transfected mutant), average of two batches): 1.0 nmol/mg protein/hr
- Neutral SMase activity (N-SMase [1]; MG-63 clone CC (ribozyme-transfected mutant), average of two batches of cell pellets): 0.67 nmol/mg protein/hr
- Reduction in N-SMase activity (N-SMase [1]; ribozyme-transfected cells compared to sham-transfected and untransfected controls): three-fold reduction
- Immunohistochemical staining for N-SMase (N-SMase [2]): near absence
